Legend:
[1] = target: TCR Vβ17 on T cells of PBMCs; assay: flow cytometry on PBMCs, percent of cells stained
[2] = target: Vβ17 (on cells expressing Vβ17); assay: cell-based or functional assay
Sequence of Vβ17 (on cells expressing Vβ17) (A0A075B6N1 22-114): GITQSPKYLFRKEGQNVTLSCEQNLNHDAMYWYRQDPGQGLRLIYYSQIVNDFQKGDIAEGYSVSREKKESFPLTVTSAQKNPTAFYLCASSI

Sequence of TCR Vβ17 on T cells of PBMCs (A0A075B6N1 22-114): as above

| Substance | PBMC binding (%) [1] | Cell Internalization (EC50) [2] |
| --- | --- | --- |
| Anti TCR Vβ17-PE Ab, Beckman Coulter, Cat: IM2048 (antibody) | 3.4% | < 0.07 nM |
| Goat anti mouse IgG PE, Southern Biotech, Cat: 1030-09 (antibody) | 0.13% |  |

Reference: patent US20250092134A1
